In patent publication US5763571A, “Inhibiting protein interactions” (The General Hospital Corporation, priority 1995, dated 1998):

Target: T1, Raf(1-257) (Homo sapiens, UniProt P04049)
T1 construct: expressed in transfected cells; host or cells: yeast strain GGY1::171, plasmid pMA424
Assay: Yeast two-hybrid GAL4/lacZ interaction with Raf(1-257)
Format: cell-based
Settings: X-gal plates
Experimental: Detection of protein-protein interactions using the two-hybrid system in yeast was carried out as follows. The vector pMA424 (Chien C. T., Bartel P. L., Sternglanz, R., Fields, S., Proc. Natl. Acad. Sci. U.S.A. 88, 9578-9582 (1991)) containing either Raf(1-257) or Raf(1-257, C168 →S) DNA sequences fused in frame with the sequences encoding GAL4 (1-147), was cotransformed into yeast together with the pACTII vector containing no insert as a control, or DNA sequences encoding V12GrasH, V12GrasHΔCT, murine rap1b, or rap1bΔCT fused in frame with the GAL4 transactivation domain II. […]
The DNA sequences encoding Raf(1-257) and Raf(1-257, C168 →S) were prepared by the PCR using the plasmids RSV-C4 and RSV-PM17 (Bruder, J. T., Heidecker, G. & Rapp, U.R. Genes Dev. 6, 545-556 (1992)) respectively as templates. […] The reading frame and the C168 →S mutation were verified by DNA sequencing. […] Transformants were grown on SDHis-Leu-plates as in (Durfee, T. et al. Genes Develop. 7, 555-569 (1993); Chien C. T., Bartel P. L., Sternglanz, R., Fields, S., Proc. Natl. Acad. Sci. U.S.A. 88, 9578-9582 (1991)) for 3 days before replica plating to X-gal containing plates, which in turn were scored for blue colonies 72 hours later.
Ras effector domain mutants which impair the interaction between V12GrasHΔCT and Raf(1-257) were analyzed as follows. […]

B1: V12Grap-1b: Rap 1b low molecular weight GTP binding protein variant, GAL4 fusion (protein)
chain: ANFNQSGNIADSSLSFTFTNSSNGPNLITTQTNSQALSQPIASSNVHDNFMNNEITASKIDDGNNSKPLSPGWTDQTAYNAFGITTGMFNTTTMDDVYNYLFDDEDTPPNPKKEMREYKLVVLGSVGVGKSALTVQFVQGIFVEKYDPTIEDSYRKQVEVDAQQCMLEILDTAGTEQFTAMRDLYMKNGQGFALVYSITAQSTFNDLQDLREQILRVKDTDDVPMILVGNKCDLEDERVVGKEQGQNLARQWNNCAFLESSAKSKINVNEIFYDLVRQINRKTPVPGKARKKSSCQLL
  lacZ expression on coexpression with wild-type Raf(1-257) (in words): interact strongly

B2: V12Grap-1bΔCT: V12Grap-1b lacking the carboxyterminal 4 amino acids (protein)
chain: ANFNQSGNIADSSLSFTFTNSSNGPNLITTQTNSQALSQPIASSNVHDNFMNNEITASKIDDGNNSKPLSPGWTDQTAYNAFGITTGMFNTTTMDDVYNYLFDDEDTPPNPKKEMREYKLVVLGSVGVGKSALTVQFVQGIFVEKYDPTIEDSYRKQVEVDAQQCMLEILDTAGTEQFTAMRDLYMKNGQGFALVYSITAQSTFNDLQDLREQILRVKDTDDVPMILVGNKCDLEDERVVGKEQGQNLARQWNNCAFLESSAKSKINVNEIFYDLVRQINRKTPVPGKARKKSS
  lacZ expression on coexpression with wild-type Raf(1-257) (in words): interact strongly
